{
  "source": "patent US20070189963A1",
  "about": "(EIDGENOSSISCHE TECHNISCHE HOCHSCHULE ZURICH, published 2007)",
  "molecules": {"B1": {"name": "scFv L19 (high-affinity anti-ED-B human scFv antibody fragment) (scFv)", "scFv": "EVQLLESGGGLVQPGGSLRLSCAASGFTFSSFSMSWVRQAPGKGLEWVSSISGSSGTTYYADSVKGRFTISRDNSKNTLYLQMNSLRAEDTAVYYCAKPFPYFDYWGQGTLVTVSSGDGSSGGSGGASTGEIVLTQSPGTLSLSPGERATLSCRASQSVSSSYLAWYQQKPGQAPRLLIYYASSRATGIPDRFSGSGSGTDFTLTISRLEPEDFAVYYCQQTGRIPPTFGQGTKVEIKDDDSDDDYKDDDDKHHHHHH", "notes": "T0005 (VH, linker, VL) is not labelled L19 itself; also called antibody L19"}},
  "key": {"[1]": {"biological_target": "hen egg lysozyme (hen) (UniProt P00698)", "sequence (P00698 19-147)": "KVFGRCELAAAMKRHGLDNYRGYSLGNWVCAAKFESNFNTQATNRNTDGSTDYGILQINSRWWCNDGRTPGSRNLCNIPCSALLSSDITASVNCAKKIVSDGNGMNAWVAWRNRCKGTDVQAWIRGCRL", "assay": "affinity chromatography of the Cy5 conjugate on an antigen column"}, "[2]": {"biological_target": "hen egg lysozyme (hen) (UniProt P00698)", "assay": "125I-labeled scFv loaded on an antigen column, counting of flow-through and eluate"}, "[3]": {"biological_target": "T1, recombinant ED-B domain of fibronectin (UniProt P02751 1266-1356, biotinylated (biotin disulfide N-hydroxysuccinimide ester) in ELISA and ECL competition; Cy5 at the N-terminal extremity in the band-shift assay)", "T1 construct": "domain: ED-B; Recombinant fragment as in Carnemolla et al. 1996; also called biotinylated ED-B; ED-B-biotin", "T1 sequence (P02751 1266-1356 limits assumed)": "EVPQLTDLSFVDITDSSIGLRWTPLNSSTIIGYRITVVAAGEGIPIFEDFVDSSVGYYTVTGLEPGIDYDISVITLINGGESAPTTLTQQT", "assay": "competition of scFv-(ED-B-biotin) complex with unbiotinylated ED-B, electrochemiluminescent detection (Origen)", "description": "(§1) J. Cancer, 68, 397-405). After loading, the column was washed with 50 ml of equilibration buffer (PBS, 1 mM EDTA, 0.5 M NaCl). Antibody fragments were then eluted with triethylamine 100 mM, immediately neutralised with 1M Hepes, pH 7, and dialysed against PBS, Affinity measurements by BlAcore were performed with purified antibodies as described (Neri et al. (1997). Nature Biotechnol., 15 1271-1275) [FIG. 4]. Band-shift analysis was performed as described (Neri et al. (1996). Nature Biotechnology, 14, 385-390), using recombinant ED-B fluorescently labeled at the N-terminal extremity (Carnemolla et al. (1996). lnt. J. Cancer, 68, 397-405, Neri et al. (1997). Nature Biotechnol., 15 1271-1275) with the infrared fluorophore Cy5 (Amersham) [FIG. 4]. […] We therefore peformed measurements of the kinetic dissociation constant koff by competition experiments (Neri et al. (1996), Trends in Biotechnol., 14, 465-470) [FIG. 4]. […] Streptavidin-coated dynabeads, diluted in Origen Assay Buffer (Deaver, D. R. (1995). Nature, 377, 758-760) were then added (20 μl, 1 mg/ml), and the resulting mixtures analysed with a ORIGEN Analyzer (IGEN Inc. Gaithersburg, Md. USA). […]"}, "[4]": {"biological_target": "T1, recombinant ED-B domain of fibronectin", "assay": "Kd = koff/kon, koff from ECL competition, kon from BIAcore", "description": "as §1"}, "[5]": {"biological_target": "T1, recombinant ED-B domain of fibronectin", "assay": "SPR (BIAcore), purified scFv", "description": "Meth., 206, 171-182) and affinity purified onto a CNBr-activated sepharose column (Pharmacia, Uppsala, Sweden), which had been coupled with 10 mg of ED-B containing 7B89 recombinant protein (Carnemolla et al. (1996). lnt. J. Cancer, 68, 397-405). After loading, the column was washed with 50 ml of equilibration buffer (PBS, 1 mM EDTA, 0.5 M NaCl). Antibody fragments were then eluted with triethylamine 100 mM, immediately neutralised with 1M Hepes, pH 7, and dialysed against PBS, Affinity measurements by BlAcore were performed with purified antibodies as described (Neri et al. (1997). Nature Biotechnol., 15 1271-1275) [FIG. 4]. Band-shift analysis was performed as described (Neri et al. (1996). Nature Biotechnology, 14, 385-390), using recombinant ED-B fluorescently labeled at the N-terminal extremity (Carnemolla et al. (1996). lnt. J. Cancer, 68, 397-405, Neri et al. (1997). Nature Biotechnol., 15 1271-1275) with the infrared fluorophore Cy5 (Amersham) [FIG. 4]. […] We therefore peformed measurements of the kinetic dissociation constant koff by competition experiments (Neri et al. (1996), Trends in Biotechnol., 14, 465-470) [FIG. 4]. […] Streptavidin-coated dynabeads, diluted in Origen Assay Buffer (Deaver, D. R. (1995). Nature, 377, 758-760) were then added (20 μl, 1 mg/ml), and the resulting mixtures analysed with a ORIGEN Analyzer (IGEN Inc. Gaithersburg, Md. USA). […]"}, "[6]": {"biological_target": "T1, recombinant ED-B domain of fibronectin", "assay": "SPR (BIAcore)", "description": "After loading, the column was washed with 50 ml of equilibration buffer (PBS, 1 mM EDTA, 0.5 M NaCl). Antibody fragments were then eluted with triethylamine 100 mM, immediately neutralised with 1M Hepes, pH 7, and dialysed against PBS, Affinity measurements by BlAcore were performed with purified antibodies as described (Neri et al. (1997). Nature Biotechnol., 15 1271-1275) [FIG. 4]. Band-shift analysis was performed as described (Neri et al. (1996). Nature Biotechnology, 14, 385-390), using recombinant ED-B fluorescently labeled at the N-terminal extremity (Carnemolla et al. (1996). lnt. J. Cancer, 68, 397-405, Neri et al. (1997). Nature Biotechnol., 15 1271-1275) with the infrared fluorophore Cy5 (Amersham) [FIG. 4]. […] We therefore peformed measurements of the kinetic dissociation constant koff by competition experiments (Neri et al. (1996), Trends in Biotechnol., 14, 465-470) [FIG. 4]. […] Streptavidin-coated dynabeads, diluted in Origen Assay Buffer (Deaver, D. R. (1995). Nature, 377, 758-760) were then added (20 μl, 1 mg/ml), and the resulting mixtures analysed with a ORIGEN Analyzer (IGEN Inc. Gaithersburg, Md. USA)."}},
  "data": [
    {"molecule": "scFv(HyHEL-10)", "values": [
      {"measurement": "immunoreactivity", "setting": "[1]", "result": "> 78", "unit": "%"}
    ]},
    {"molecule": "scFv(D1.3)", "values": [
      {"measurement": "immunoreactivity", "setting": "[2]", "result": 80, "unit": "%"}
    ]},
    {"molecule": "B1", "values": [
      {"measurement": "koff", "setting": "[3]", "result": "6e-06", "unit": "s⁻¹"},
      {"measurement": "Kd", "setting": "[4]", "result": 0.054, "unit": "nM"},
      {"measurement": "kon", "setting": "[5]", "result": 110000, "unit": "M⁻¹ s⁻¹"},
      {"measurement": "koff", "setting": "[6]", "result": "9.6e-05", "unit": "s⁻¹"}
    ]}
  ]
}
